assay: soluble on expression in E. coli; label from the status in PepcDB or PDB records

| Sequence | soluble on expression in E. coli |
| --- | --- |
| APPSSFSKAKKEAVKIYLDYPTSFYCGCDITWKNKKKGIPELESCGYQVRKQEKRASRIEWEHVVPAWQFGHQRQCWQKGGRKNCTRNDKQFKSMEADLHNLVPAIGEVNGDRSNFRFSQWNGSKGAFYGQCAFKVDFKGRVAEPPAQSRGAIARTYLYMNNEYKFNLSKAQRQLMEAWNKQYPVSTWECTRDERIAKIQGNHNQFVYKAC | soluble |
| APTAPSIDMYGSNNLQFSKIELAMETTSGYNDMVKYHELAKIKVKFNQWSGTSGDTYNVYFDGVKVATGAITGSQTTASFEYGQGGLYQMEIEACDATGCSKSAPVEITIADTDGSHLKPLTMNVDPNNKSYNTDPSIVMGTYFVEWGIYGRDYTVDNMPVDNLTHILYGFIPICGPNESVKSVGGNSFNALQTACRGVNDYEVVIHDPWAAYQKSFPQAGHEYSTPIKGNYAMLMALKQRNPDLKIIPSIGGWTLSDPFYDFVDKKNRDTFVASVKKFLKTWKFYDGVDIDWEFPGGGGAAADKGDPVNDGPAYIALMRELRVMLDELEAETGRTYELTSAIGVGYDKIEDVDYADAVQYMDYIFAMTYDFYGGWNNVPGHQTALYCGSFMRPGQCDGGGVDENGEPYKGPAYTADNGIQLLLAQGVPANKLVLGTAMYGRGWEGVTPDTLTDPNDPMTGTATGKLKGSTAQGVWEDGVIDYKGIKSFMLGANNTGINGFEYGYDAQAEAPWVWNRSTGELITFDDHRSVLAKGNYAKSLGLAGLFSWEIDADNGDILNAMHEGMAGGVVTPPNRRSHHHHHH | soluble |
| APVPTYQTLIVRPGDLQQSVLATGKLDALRKVDVGAQVSGQLKTLSVAIGDKVKKDQLLGVIDPEQAENQIKEVEATLMELRAQRQQAEAELKLARVTYSRQQRLAQTQAVSQQDLDNAATEMAVKQAQIGTIDAQIKRNQASLDTAKTNLDYTRIVAPMAGEVTQITTLQGQTVIAAQQAPNILTLADMSAMLVKAQVSEADVIHLKPGQKAWFTVLGDQLTRYEGQIKDVLPTPEKVNDAIFYYARFEVPNPNGLLRLDMTAQVHIQLTDVKNVLTIPLSALGDPVGDNRYKVKLLRNGETREREVTIGARNDTDVEIVKGLEAGDEVVIGEAKPGAAQ | soluble |
| AQARMGDSRDLCPHLDSIGEVTKEDLLLKSKGTCQSCGVTGPNLWACLQVACPYVGCGESFADHSTIHAQAKKHNLTVNLTTFRLWCYACEKEVFLEQRLAAPLLGSSSKFSEQDSPPPSHPLKAVPIAVADEGESESEDDDLKPRGLTGMKNLGNSCYMNAALQALSNCPPLTQFFLECGGLVRTDKKPALCKSYQKLVSEVWHKKRPSYVVPTSLSHGIKLVNPMFRGYAQQDTQEFLRCLMDQLHEELKEPVVATVALTEARDSDSSDTDEKREGDRSPSEDEFLSCDSSSDRGEGDGQGRGGGSSQAETELLIPDEAGRVISEKERMKDRKFSWGQQRTNSEQVDEDADVDTAMAALDQPAEAQPPSPRSSSPCRTPEPDNDAHLRSSSRPCSPVHHHEGHAKLSSSPPRASPVRMAPSYVLKKAQVLSAGSRRRKEQRYRSVISDIFDGSILSLVQCLTCDRVSTTVETFQDLSLPIPGKEDLAKLHSAIYQNVPAKPGACGDSYAAQGWLAFIVEYIRRFVVSCTPSWFWGPVVTLEDCLAAFFAADELKGDNMYSCERCKKLRNGVKYCKVLRLPEILCIHLKRFRHEVMYSFKINSHVSFPLEGLDLRPFLAKECTSQITTYDLLSVICHHGTAGSGHYIAYCQNVINGQWYEFDDQYVTEVHETVVQNAEGYVLFYRKSSEEAMRERQQVVSLAAMREPSLLRFYVSREWLNKFNTFAEPGPITNQTFLCSHGGIPPHKYHYIDDLVVILPQNVWEHLYNRFGGGPAVNHLYVCSICQVEIEALAKRRRIEIDTFIKLNKAFQAEESPGVIYCISMQWFREWEAFVKGKDNEPPGPIDNSRIAQVKGSGHVQLKQGADYGQISEETWTYLNSLYGGGPEIAIRQSVAQPLGPENLHGEQKIEAETRAV | soluble |
| AQSSTDVIDQLFTALSGWFHGSEEKLGEFRGCFFINTSAEFSDDSGEIATYCRHHKQQVRELIQRYLKSDNTSLLDAICIMKEGAITTAYMTKEYDDVTKKCVEILHKL | not soluble |
| ARGHRHTCKVMVLKEEAAGSERALALDMREGQRVFHSLIVHFENDIPVQIEDRFVNAQVAPDYLKQDFTLQTPYAYLSQVAPLTEGEHVVEAILAEADECKLLQIDAGEPCLLIRRRTWSGRQPVTAARLIHPGSRHRLEGRFTK | soluble |
| ARKRAAGGEPRGRELRSQKSKAKSKARREEEEEDAFEDEKPPKKSLLSKVSQGKRKRGCSHPGGSADGPAKKKVAKVTVKSENLKVIKDEALSDGDDLRDFPSDLKKAHHLKRGATMNEDSNEEEEESENDWEEVEELSEPVLGDVRESTAFSRSLLPVKPVEIEIETPEQAKTRERSEKIKLEFETYLRRAMKRFNKGVHEDTHKVHLLCLLANGFYRNNICSQPDLHAIGLSIIPARFTRVLPRDVDTYYLSNLVKWFIGTFTVNAELSASEQDNLQTTLERRFAIYSARDDEELVHIFLLILRALQLLTRLVLSLQPIPLKSATAKGKKPSKERLTADPGGSSETSSQVLENHTKPKTSKGTKQEETFAKGTCRPSAKGKRNKGGRKKRSKPSSSEEDEGPGDKQEKATQRRPHGRERRVASRVSYKEESGSDEAGSGSDFELSSGEASDPSDEDSEPGPPKQRKAPAPQRTKAGSKSASRTHRGSHRKDPSLPVASSSSSSSKRGKKMCSDGEKAEKRSIAGIDQWLEVFCEQEEKWVCVDCVHGVVGQPLTCYKYATKPMTYVVGIDSDGWVRDVTQRYDPVWMTVTRKCRVDAEWWAETLRPYQSPFMDREKKEDLEFQAKHMDQPLPTAIGLYKNHPLYALKRHLLKYEAIYPETAAILGYCRGEAVYSRDCVHTLHSRDTWLKKARVVRLGEVPYKMVKGFSNRARKARLAEPQLREENDLGLFGYWQTEEYQPPVAVDGKVPRNEFGNVYLFLPSMMPIGCVQLNLPNLHRVARKLDIDCVQAITGFDFHGGYSHPVTDGYIVCEEFKDVLLTAWENEQAVIERKEKEKKEKRALGNWKLLAKGLLIRERLKRRYGPKSEAAAPHTDAGGGLSSDEEEGTSSQAEAARILAASWPQNREDEEKQKLKGGPKKTKREKKAAASHLFPFEKL | not soluble |
| ARQVICWCFTLNNPLSPLSLHDSMKYLVYQTEQGEAGNIHFQGYIEMKKRTSLAGMKKLIPGAHFEKRRGTQGEARAYSMKEDTRLEGPWEYGE | soluble |
| ARSAYSYIREAWKRPKEGQIAELMWHRMQEWRNEPAVVRIERPTRLDRARSLGYKAKQGIIVVRVAIRKGSSRRTRFNKGRRSKRMMVNRITRKKNIQRIAEERANRKFPNLRVLNSYSVGEDGRHKWHEVILIDPDHPAIKSDDQLSWISRTRHRLRTFRGLTSAGRRCRGLRGQGKGSEKVRPSLRVNGAKA | soluble |
| ARVLVVGDVMLDRYWFGEVDRISPEAPVPVVRVARREDRLGGAANVARNVAALGAQVTLIGVVGADEVGLRIERMAAEEGVRTDLVSDTEHPTTLKMRVLGRQQQLLRVDFEQHPEPAALDGISAAVARQLAQHDIVVLSDYAKGVLDRVESIIAAAVGHSLPVLVDPKGDHYERYRGATLVTPNRAEMREAVGRWKTEDELAERAQRLRLDLDLEALLVTRSEQGMTLFTDAGRDHADAAAHEVYDVSGAGDTVLATLAVMRAVGLSWGDAMRWANRAGGIVVGKLGTSVVTAAEL | not soluble |
| ASIFGVFDIKTDAVELRKKALELSRLMRHRGPDWSGIYASDNAILAHERLSIVDVNAGAQPLYNQQKTHVLAVNGEIYNHQALRAEYGDRYQFQTGSDCEVILALYQEKGPEFLDDLQGMFAFALYDSEKDAYLIGRDHLGIIPLYMGYDEHGQLYVASEMKALVPVCRTIKEFPAGSYLWSQDGEIRSYYHRDWFDYDAVKDNVTDKNELRQALEDSVKSHLMSDVPYGVLLSGGLDSSIISAITKKYAARRVEDQERSEAWWPQLHSFAVGLPGSPDLKAAQEVANHLGTVHHEIHFTVQEGLDAIRDVIYHIETYDVTTIRASTPMYLMSRKIKAMGIKMVLSGEGSDEVFGGYLYFHKAPNAKELHEETVRKLLALHMYDCARANKAMSAWGVEARVPFLDKKFLDVAMRINPQDKMCGNGKMEKHILRECFEAYLPASVAWRQKEQFSDGVGYSWIDTLKEVAAQQVSDQQLETARFRFPYNTPTSKEAYLYREIFEELFPLPSAAECVPGGPSVACSSAKAIEWDEAFKKMDDPSGRAVGVHQSAYK | soluble |

From the DeepSol protein solubility set
